According to PMC9352680, “A comprehensive thermodynamic model for RNA binding by the Saccharomyces cerevisiae Pumilio protein PUF4”:
Numbering of substitutions follows the chain as printed. Names may count otherwise.

T1: PUF4 RNA-binding domain (Saccharomyces cerevisiae, UniProt P25339 537-888)
T1 sequence: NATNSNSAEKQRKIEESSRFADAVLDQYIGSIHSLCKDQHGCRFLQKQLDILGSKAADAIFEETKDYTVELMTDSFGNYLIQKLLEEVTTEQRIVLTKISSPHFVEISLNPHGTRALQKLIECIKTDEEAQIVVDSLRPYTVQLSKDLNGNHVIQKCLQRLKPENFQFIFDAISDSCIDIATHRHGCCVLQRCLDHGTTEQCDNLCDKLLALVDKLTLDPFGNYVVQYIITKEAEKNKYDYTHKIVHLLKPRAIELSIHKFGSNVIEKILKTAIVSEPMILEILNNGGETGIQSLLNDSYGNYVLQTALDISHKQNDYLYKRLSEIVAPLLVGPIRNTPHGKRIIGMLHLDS

B1: Ib_S2_P4E.1_K4.1_C4.1_H4.1_A4.1_[A6T]_F4.1_[T8A]_T4.1 (ssRNA)
RNA: UUUGAUUAAUAUGAUAUCGUUCUUUCUUGUAUUUAAUUCUUUCUCGAUAUCAUAUUAAUCUUU
B2: Ib_S2_P4E.1_K4.1_C4.1_H4.1_A4.1_[T5A]_F4.1_[A9G]_T4.1 (ssRNA)
RNA: B1 RNA with U32A, U33A, A35U, A36G
B3: Ib_S2_P4E.1_K4.1_C4.1_H4.1_[G2T]_A4.1_[T5A]_F4.1_T4.1 (ssRNA)
RNA: B1 RNA with G29U, U32A, U33A, A35U
B4: Ib_S2_P4E.1_K4.1_C4.1_H4.1_[G2C]_A4.1_[A6G]_F4.1_T4.1 (ssRNA)
RNA: B1 RNA with G29C, U33G, A35U
B5: Ib_S2_P4E.1_K4.1_C4.1_H4.1_[T1G]_[T3C]_A4.1_F4.1_T4.1 (ssRNA)
RNA: B1 RNA with U28G, U30C, U33A, A35U
B6: Ib_S2_P4E.1_K4.1_C4.1_H4.1_[T1A]_A4.1_[T5A]_F4.1_T4.1 (ssRNA)
RNA: B1 RNA with U28A, U32A, U33A, A35U
B7: Ia_S2_P4E.1_K4.1_C4.1_H4.1_[G2C]_A4.1_F4.1_T4.1 (ssRNA)
RNA: B1 RNA with G29C, U33A, A35U
B8: Ic_S2_P4E.1_K4.1_C4.1_H4.1_A4.1_[T7G]_F4.1_[A9G]_T4.1 (ssRNA)
RNA: B1 RNA with U33A, U34G, A35U, A36G
B9: Ib_S2_P4E.1_K4.1_C4.1_H4.1_A4.1_[A6G]_F4.1_[A9G]_T4.1 (ssRNA)
RNA: B1 RNA with U33G, A35U, A36G
B10: Ib_S2_P4E.1_K4.1_C4.1_H4.1_[T3C]_[A4C]_A4.1_F4.1_T4.1 (ssRNA)
RNA: B1 RNA with U30C, A31C, U33A, A35U
B11: Ib_S2_P4E.1_K4.1_C4.1_H4.1_[T1C]_[A4G]_A4.1_F4.1_T4.1 (ssRNA)
RNA: B1 RNA with U28C, A31G, U33A, A35U
B12: Ib_S2_P4E.1_K4.1_C4.1_H4.1_[T1G]_A4.1_[T5C]_F4.1_T4.1 (ssRNA)
RNA: B1 RNA with U28G, U32C, U33A, A35U
B13: Ic_S2_P4E.1_K4.1_C4.1_H4.1_A4.1_F4.1_[A9T]_T4.1 (ssRNA)
RNA: B1 RNA with U33A, A35U, A36U
B14: Ib_S2_P4E.1_K4.1_C4.1_H4.1_[T1G]_[A4G]_A4.1_F4.1_T4.1 (ssRNA)
RNA: B1 RNA with U28G, A31G, U33A, A35U
B15: Ib_S2_P4E.1_K4.1_C4.1_H4.1_[T1C]_A4.1_[A6G]_F4.1_T4.1 (ssRNA)
RNA: B1 RNA with U28C, U33G, A35U
B16: Ib_S2_P4E.1_K4.1_C4.1_H4.1_[T1G]_A4.1_[T7A]_F4.1_T4.1 (ssRNA)
RNA: B1 RNA with U28G, U33A, U34A, A35U
B17: Ic_S2_P4E.1_K4.1_C4.1_H4.1_A4.1_[T7C]_F4.1_[T8C]_T4.1 (ssRNA)
RNA: B1 RNA with U33A, U34C, A35C
B18: Ib_S2_P4E.1_K4.1_C4.1_H4.1_A4.1_[T7A]_F4.1_[T8C]_T4.1 (ssRNA)
RNA: B1 RNA with U33A, U34A, A35C
B19: Ib_S2_P4E.1_K4.1_C4.1_H4.1_[G2A]_[A4C]_A4.1_F4.1_T4.1 (ssRNA)
RNA: B1 RNA with G29A, A31C, U33A, A35U
B20: Ib_S2_P4E.1_K4.1_C4.1_H4.1_A4.1_[A6C]_F4.1_[A9T]_T4.1 (ssRNA)
RNA: B1 RNA with U33C, A35U, A36U
B21: Ib_S2_P4E.1_K4.1_C4.1_H4.1_A4.1_[A6T]_F4.1_[A9C]_T4.1 (ssRNA)
RNA: B1 RNA with A35U, A36C
B22: Ib_S2_P4E.1_K4.1_C4.1_H4.1_[G2T]_A4.1_[A6G]_F4.1_T4.1 (ssRNA)
RNA: B1 RNA with G29U, U33G, A35U
B23: Ib_S2_P4E.1_K4.1_C4.1_H4.1_[T1G]_A4.1_[A6T]_F4.1_T4.1 (ssRNA)
RNA: B1 RNA with U28G, A35U
B24: Ib_S2_P4E.1_K4.1_C4.1_H4.1_A4.1_[T5A]_F4.1_[A9C]_T4.1 (ssRNA)
RNA: B1 RNA with U32A, U33A, A35U, A36C
B25: Ib_S2_P4E.1_K4.1_C4.1_H4.1_[G2A]_[A4T]_A4.1_F4.1_T4.1 (ssRNA)
RNA: B1 RNA with G29A, A31U, U33A, A35U
B26: Ic_S2_P4E.1_K4.1_C4.1_H4.1_A4.1_[T7G]_F4.1_[T8C]_T4.1 (ssRNA)
RNA: B1 RNA with U33A, U34G, A35C
B27: Ib_S2_P4E.1_K4.1_C4.1_H4.1_[T1A]_A4.1_[T7G]_F4.1_T4.1 (ssRNA)
RNA: B1 RNA with U28A, U33A, U34G, A35U
B28: Ic_S2_P4E.1_K4.1_C4.1_H4.1_A4.1_[T7C]_F4.1_[T8A]_T4.1 (ssRNA)
RNA: B1 RNA with U33A, U34C
B29: Ib_S2_P4E.1_K4.1_C4.1_H4.1_[T1A]_[G2A]_A4.1_F4.1_T4.1 (ssRNA)
RNA: B1 RNA with U28A, G29A, U33A, A35U

These binders were tested against T1, PUF4 RNA-binding domain (assay: Mg; RNA-MaP; 20 mM Na-HEPES pH 7.4, 30 mM KOAc, 0.75 mM MgCl2, 0.1% Tween-20, 5% glycerol, 0.1 mg/mL BSA, 2 mM DTT; 25 C; 0.0125-409.6 nM protein). Conditions: tags: N-His6-TEV cleaved; C-SNAP kept, Cy3B-labelled; label: tethered on chip by stalled RNA polymerase.

| Binder | Kd [nM] |
| --- | --- |
| B1 | 17.8 |
| B2 | 9.22 |
| B3 | 1900 |
| B4 | 1150 |
| B5 | 222 |
| B6 | 657 |
| B7 | 151 |
| B8 | 6.7 |
| B9 | 26.5 |
| B10 | 1130 |
| B11 | 7.32 |
| B12 | 21.1 |
| B13 | 1.55 |
| B14 | 18.6 |
| B15 | 795 |
| B16 | 303 |
| B17 | 12 |
| B18 | 18.8 |
| B19 | 1120 |
| B20 | 8.41 |
| B21 | 20.5 |
| B22 | > 2300 |
| B23 | 497 |
| B24 | 17.1 |
| B25 | 852 |
| B26 | 42 |
| B27 | 550 |
| B28 | 18 |
| B29 | 616 |
